For one substance, % of Y2H colonies expressing the reporter genes results are on record in article PMC9635645.

The target of this assay is GAL4 DBD-BEAF-32B (Drosophila). Kind of assay: two-hybrid; GAL4 AD fusions (pOAD) against GAL4 DBD fusions (pOBD2) in yeast; 50 to 100 colonies with both plasmids scored for growth on medium lacking adenine and histidine, with X-α-Gal.
Sequence of GAL4 DBD-BEAF-32B (Drosophila) (main, as listed by the source): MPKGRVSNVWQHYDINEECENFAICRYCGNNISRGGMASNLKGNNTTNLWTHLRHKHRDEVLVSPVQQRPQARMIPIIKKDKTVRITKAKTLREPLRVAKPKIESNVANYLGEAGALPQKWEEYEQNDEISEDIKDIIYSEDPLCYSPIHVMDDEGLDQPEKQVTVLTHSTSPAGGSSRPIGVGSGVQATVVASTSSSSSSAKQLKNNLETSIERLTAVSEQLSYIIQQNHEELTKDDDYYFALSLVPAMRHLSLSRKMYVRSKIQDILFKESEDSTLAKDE

The substance GAL4 AD-Pbro BD4–5 (domain or fragment) had a % of Y2H colonies expressing the reporter genes of 20%.
